Assay results published in the supplement of paper PMC9170038.

System: MS2 coat protein
Experiment: apparent KD of MS2 coat protein; designed switch direction (-1 OFF switch, 1 ON switch): -1; higher = weaker reporter binding
Method in brief: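 On Illumina chips, designed RNA switches with common flanks were made by stalled E. coli RNA polymerase. Titrations with SNAP-549-labelled MS2 coat protein, doubling from 0.7 or 1.5 nM to 3 µM, were done with no input, with 200 uM small-molecule ligand, or with an oligonucleotide input. Apparent KD is the median per design over clusters, from curve fits of normalised cluster fluorescence.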

[1] = Eterna round: R95, input ligand: FMN 200 uM
[2] = Eterna round: R95, input ligand: microRNA oligo, concentration not stated
[3] = Eterna round: R95, input ligand: none
[4] = input ligand: microRNA oligo, concentration not stated

Sequence | apparent KD of MS2 coat protein [1] [nM] | apparent KD of MS2 coat protein [2] [nM] | apparent KD of MS2 coat protein [3] [nM] | apparent KD of MS2 coat protein (input ligand: FMN 200 uM) [nM] | apparent KD of MS2 coat protein (input ligand: none) [nM] | apparent KD of MS2 coat protein [4] [nM]
UUAUACGUUGAGGAUAUGCGAUUUAGUAUAGUUGCAGAAGGCGAUACAUGAGGAUCACCCAUGUUUAUGGGCAU [LRO-Ex6-07] (puzzle: Exclusion 6) | 394 | 269 | 259 | – | – | –
UUAUACGUUGAGGAUAUGUCAGUUAGUAUAUUUACAGAAGGCGAUACAUGAGGAUCACCCAUGUUUAUGGGCAU [Ex-6 Malc#3] (puzzle: Exclusion 6) | – | 127 | – | – | – | –
UUAUAGUGAGGAUAUAUAUGCAGUAAACCUUUAAAUUUAUAACUUGAGGAUCACCCAAGUAGAAGGCGCGUUAU [JR_Ex2_Sub054] (Eterna round: R97, puzzle: Exclusion 2) | – | – | – | 15.3 | 16.9 | –
UUAUAUAGUGUGAGGAUAUGCUGGUCCUUGGAUCAGCAGAAGGCACAUGAGGAUCACCCAUGUAGUUAAUAAUA [Mat - Exclusion 4 - JL Mod - D16] (puzzle: Brourd's mod of Exclusion 4) | 131 | 30 | 42.8 | – | – | –
UUAUAUAGUGUGAGGAUAUGCUGGUCCUUGGAUCAGCAGAAGGCACAUGAGGAUCACCCAUGUAGUUUAUUUUA [JL bmx4 3.01] (puzzle: Brourd's mod of Exclusion 4) | – | 26.8 | – | – | – | –
UUAUCCGCUGAGGAUAUUAUCAGUGAGAGCUGAUGAGAAGGCGGUACAUGAGGAUCACCCAUGUCUAUGGGCAG [Ex-6 Malc#24] (puzzle: Exclusion 6) | 472 | 337 | 435 | – | – | –
UUAUGACAUGAGGAUCACCCAUGUAAGGAUAUCGAAGGAGAUGGUUACGAGGCCGCUACGAGAAGGUACGCGGG [Eternabot (L2) Solution 23] (Eterna round: R97, puzzle: Exclusion 1) | – | – | – | 161 | 109 | –
UUAUUAUAUGUAGGAUAUGCAUAUUGUUGUUAUGCAGAAGGACAUGAGGAUCACCCAUGUAUAUUGUUGUUAUAUAUUAUAUAU [Title] (Eterna round: R96, puzzle: Exclusion NG 1) | – | – | – | 27.1 | 22.3 | 18.6
UUCACAUGGACAUAAGAUCACAUGAGGAUCACCCAUGUGAAUAACAAGCUUUUUGCUCGUCUUAUGUCCAAUAAUAA [Stov1/14-A1] (Eterna round: R97, puzzle: Sensor, turn-off variant 1) | – | – | – | 14.1 | 12.2 | –
UUCACAUGGACAUGAGAUCACAUGAGGAUCACCCAUGUGAAUAACAAGCUUUUUGUUCGUCUUAUGUCCAAUAAUAG [Stov1/14-D3] (Eterna round: R97, puzzle: Sensor, turn-off variant 1) | – | – | – | 14 | 14.1 | –
UUCAGACAUGAGGAUCACCCAUGUGAGGAUAUGAUGCGAUCGUCGAAAGACGAUAGCAUCAGAAGGCACAUAUG [Fiskers Ex 1 - 17] (puzzle: Exclusion 1) | – | 153 | – | – | – | –
UUCAUGUGAGGAUAUGUGCAAGACCUAGAGAUUGGGUUUUCACAGAAGGCACAUGAGGAUCACCCAUGUGUUAC [Eternabot (L2) Solution 23] (Eterna round: R97, puzzle: Exclusion 4) | – | – | – | 232 | 126 | –
UUCCAACAUGAGGAUCACCCAUGUCAGGAUAUGCGACCUCCACCACCAACCUCACCUCGCAGAAGGGACACACC [Mod-Cyanosaur/default-title] (Eterna round: R97, puzzle: Exclusion 1) | – | – | – | 24.2 | 23.7 | –
UUCCGACAUGAGGAUCACCCAUGUGAGGAUAUGUUCGAAAGCUAAGACUGCGACAGGAAUAGAAGGCGCGGGUA [Eternabot (Original) Solution 17] (Eterna round: R97, puzzle: Exclusion 1) | – | – | – | 20.4 | 20.4 | –
UUCCUCACUUCUUUGUCUCACAUGAGGAUCACCCAUGUAAUAUAGGAUAUGCAUAGUAUUUCUAUGCAGAAGGAUAUUAGUUUU [JR_ExcNG3_Sub087] (Eterna round: R96, puzzle: Exclusion NG 3) | – | – | – | 131 | 34.7 | 27.3
UUCCUCUCUUCUCUGUCUCACAUGAGGAUCACCCAUGUAACAUAGGAUAUGCUUGGUAUUUAAAUGCAGAAGGAUGUUAGUAUU [JR_ExcNG3_Sub082] (Eterna round: R96, puzzle: Exclusion NG 3) | – | – | – | 82.9 | 30.2 | 22.4
UUCGUGCAGCUUUGCUGUACGAGUACAUGAGGAUCACCCAUGUAGGAUAUGGUACGCUUUGCGUGCUAGAAGGAUAUGUGUAGG [JL EXNG3 1.37] (Eterna round: R96, puzzle: Exclusion NG 3) | – | – | – | 55.5 | 43.9 | 27.5

Sequence | apparent KD of MS2 coat protein [1] [nM] | apparent KD of MS2 coat protein [2] [nM] | apparent KD of MS2 coat protein [3] [nM] | apparent KD of MS2 coat protein (input ligand: FMN 200 uM) [nM] | apparent KD of MS2 coat protein (input ligand: none) [nM] | apparent KD of MS2 coat protein [4] [nM]
UUCUACAAGCUGAGAUCCUACAUGAGGAUCACCCAUGUGGUCCGGAACAUUCUGUCACCGGAUCUUGCUCGUCUUGU [salish99_S_TOV1_R5_104] (Eterna round: R97, puzzle: Sensor, turn-off variant 1) | – | – | – | 41.9 | 48.4 | –
UUCUGGACAGGAUAUGUACUUGAGCACUUGAGGAUCACCCAAGUCCUCAAGUACUCAGGCACAGAAGGGUUAAUUU [jl-ex5.4.65 ViennaUCT mod] (Eterna round: R97, puzzle: Exclusion 5) | – | – | – | 110 | 71.9 | –
UUGAAGUCGUCAGGAUAUAGAUUUAAUGUCAUGCGUAUGUUCUUACAUGAGGAUCACCCAUGUCGCUAGAAGGGACUAUAGAUU [JR_ExcNG2_Sub008] (Eterna round: R96, puzzle: Exclusion NG 2) | – | – | – | 54.6 | 45.1 | 35.1
UUGAAUUAGCAGGAUAUGGGAGUCGAUAGACACCCAGAAGGGCUAACAUGAGGAUCACCCAUGUGUCCUAUCAA [Mod of Eli 22 - Jieux - Exclusion 6] (Eterna round: R97, puzzle: Exclusion 6) | – | – | – | 204 | 33.9 | –
UUGAUACAUGAGGAUCACCCAUGUUAGGAUAUACGCAUGCAUGCAUGCAUGCAUGCAAGUAGAAGGAACCAUGC [Design #1] (Eterna round: R97, puzzle: Exclusion 1) | – | – | – | 30.7 | 42 | –
UUGAUGUCAUCAGGAUAUAGUAUUUAAGACAUAUCUUCUUUCUUACAUGAGGAUCACCCAUGUCGCUAGAAGGGAUGAAUGAUU [JR_ExcNG2_Sub086] (Eterna round: R96, puzzle: Exclusion NG 2) | – | – | – | – | – | 13.4
UUGCAGUCAUCAGGAUAUAGUAUUACGGCCAUUUAUAUUUUCAUACAUGAGGAUCACCCAUGUCGCUAGAAGGGAUUAUCGAUU [Exclusion NG 2] (Eterna round: R96, puzzle: Exclusion NG 2) | – | – | – | – | – | 34.5
UUGCAGUCGUCAGGAUAUAGUAUUACGGCCUUUCAUUUCUUCAUACAUGAGGAUCACCCAUGUCGCUAGAAGGGAUUAUCGAUU [salish99_ExNG2_r04_106] (Eterna round: R96, puzzle: Exclusion NG 2) | – | – | – | 16 | 23 | 17.1
UUGGAUGUUGAGGAUAUGCUGGUGUUUAUUAUAGCAGAAGGCGAUACAUGAGGAUCACCCAUGUUCAUGGCUUU [JR_E6_Sub100] (puzzle: Exclusion 6) | – | 12.4 | – | – | – | –
UUGGUUGUGGUAGGAUAUCCGUUGGAAACCUUCGGAGAAGGACCACAGUCACUGGGUCUUUGUCUGGUGGACGGUUUCGACCGU [pwkr exNG1 F6.23] (Eterna round: R96, puzzle: Exclusion NG 1) | – | – | – | 202 | 559 | 281
UUGUAGUGAGGAUAUAUAUAGUGGUUUUAUUAAUUUUUAUUACUUGAGGAUCACCCAAGUAGAAGGCGCAAAGU [JR_Ex2_Sub071] (Eterna round: R97, puzzle: Exclusion 2) | – | – | – | 19.2 | 18.3 | –
UUGUAUAUAGGAUAUGUAAGAAGAAACAUGAGGAUCACCCAUGUAGCCUCAAAUUUUAUGACAGAAGGAUAUGUUA [Default title] (Eterna round: R97, puzzle: Exclusion 5) | – | – | – | 36.2 | 56 | –
UUGUUACAUGAGGAUCACCCAUGUGAGGAUAUGGUUAAGUAAUGUAAUGUAAAGUAAUCCAGAAGGCACAUGUU [1st #25] (Eterna round: R97, puzzle: Exclusion 1) | – | – | – | 353 | 196 | –
UUGUUAUAUGUAGGAUAUGCAUAUUAUUAUUAUGCAGAAGGACAUGAGGAUCACCCAUGUAUAUUGUUGUUAUAUAUUAUAUAU [Title] (Eterna round: R96, puzzle: Exclusion NG 1) | – | – | – | – | – | 18.2
UUGUUCCGUGUAGGAUAUUGGUCUCCCUCGGGCCGAGAAGGACAUGAGGAUCACCCAUGUAUGCUAUUAUCGCGCGUGGCGCAC [Design 93] (Eterna round: R96, puzzle: Exclusion NG 1) | – | – | – | 138 | 47.3 | 34.1
UUGUUGUAUGUAGGAUAUGCAUAUUGUUAUUAUGCAGAAGGACAUGAGGAUCACCCAUGUAUAUUACUAUUAUGUACUAUAUAU [MOD of Hoglahoo's a different Title] (Eterna round: R96, puzzle: Exclusion NG 1) | – | – | – | 106 | 32.6 | 25.5
UUGUUGUGUGUAGGAUAUGCAUGUUAUUAUUAUGCAGAAGGACAUGAGGAUCACCCAUGUGUAUUAUUAUUAUAUAUUAUAUAU [Title] (Eterna round: R96, puzzle: Exclusion NG 1) | – | – | – | 21.1 | 22.5 | 13.8
